Consider nine molecules from US20230183352A1.

Assay [1] concerns the target Biotin QP004.3 (biotin-PDL1-FC) (human) (UniProt Q9NZQ7). As to the kind of experiment: binding ELISA, antibody coated, biotin-PDL1-FC titrated.
Assay [2] shares this target. The assay is described as follows: blocking ELISA, PD1-FC coated, biotin-PDL1-FC plus antibody; competitor PD1-FC. (In general: In an ELISA, binding on a coated surface is turned into a signal by an enzyme label.)
Assay [3] has as its target Claudin 18.1 (CLDN18.1), expressed on CHOS-CLDN18.1 cells (UniProt P56856). The assay is described as follows: FACS, CHOS-CLDN18.1 cells, 10 µg/ml. Background: In flow cytometry, cells or beads pass a laser one at a time.

Chain of Claudin 18.1 (CLDN18.1), expressed on CHOS-CLDN18.1 cells (P56856 whole entry): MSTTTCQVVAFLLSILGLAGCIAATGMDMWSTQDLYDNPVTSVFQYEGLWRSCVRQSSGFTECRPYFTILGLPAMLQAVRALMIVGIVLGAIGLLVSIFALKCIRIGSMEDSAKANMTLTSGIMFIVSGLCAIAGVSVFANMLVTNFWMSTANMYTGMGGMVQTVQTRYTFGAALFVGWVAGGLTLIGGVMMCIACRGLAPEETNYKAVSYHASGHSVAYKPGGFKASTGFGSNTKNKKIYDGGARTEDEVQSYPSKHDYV
Chain of Biotin QP004.3 (biotin-PDL1-FC) (human) (Q9NZQ7 19-238 limits assumed): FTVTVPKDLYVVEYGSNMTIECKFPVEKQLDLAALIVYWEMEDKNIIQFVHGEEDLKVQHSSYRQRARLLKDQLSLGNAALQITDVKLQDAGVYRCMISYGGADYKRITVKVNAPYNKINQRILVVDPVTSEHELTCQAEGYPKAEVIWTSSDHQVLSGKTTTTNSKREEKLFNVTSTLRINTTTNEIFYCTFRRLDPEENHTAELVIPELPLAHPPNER

B1: QP320 (Fc fusion, not shown: a dimerising Fc or GST)
chain: EVQLLESGGGLVQPGGSLRLSCAASGFTYGTYAMSWVRQAPGKGLEWVSCIDIYGRASYTDPVKGRFTISRDNSKNTLYLQMNSLRAEDTAVYYCAARDFGYCTASWVHEGFSRYWGQGTLVTVSS
With B1, in assay [1], the ELISA reading at 0.0007 µg/ml biotin-PDL1-FC worked out at 0.125, the ELISA reading at 0.0021 µg/ml biotin-PDL1-FC was found to be 0.114, the ELISA reading at 0.0062 µg/ml biotin-PDL1-FC amounted to 0.108 and the ELISA reading at 0.0185 µg/ml biotin-PDL1-FC is 0.0792. In addition, in assay [1], the ELISA reading at 0.0556 µg/ml biotin-PDL1-FC was 0.0843, the ELISA reading at 0.1667 µg/ml biotin-PDL1-FC was 0.0957, the ELISA reading at 0.5000 µg/ml biotin-PDL1-FC worked out at 0.142 and the ELISA reading at 2.0000 µg/ml biotin-PDL1-FC was determined as 0.23. In addition, in assay [2], the ELISA reading at 0.0457 nM antibody turned out to be 1.21, the ELISA reading at 0.1372 nM antibody was determined as 1.3, the ELISA reading at 0.4115 nM antibody was determined as 1.47 and the ELISA reading at 1.2346 nM antibody was 1.08. Further, in assay [2], the ELISA reading at 3.7037 nM antibody amounted to 1.11, the ELISA reading at 11.1111 nM antibody came to 1.12, the ELISA reading at 33.3333 nM antibody worked out at 1.02 and the ELISA reading at 100.0000 nM antibody turned out to be 0.793.

B2: QP324 (Fc fusion, not shown: a dimerising Fc or GST)
chain: EVQLLESGGGLVQPGGSLRLSCAASGFTYGTYAMSWVRQAPGKGLEWVACIDIYGRTSYTDPVKGRFTISQDNSKNTLYLQMNSLRAEDTAVYYCAARDFGYCTASWVHEGFSRYWGQGTLVTVSS
Consider B2, for which, in assay [1], the ELISA reading at 0.0007 µg/ml biotin-PDL1-FC was found to be 0.192, the ELISA reading at 0.0021 µg/ml biotin-PDL1-FC is 0.141, the ELISA reading at 0.0062 µg/ml biotin-PDL1-FC was 0.15 and the ELISA reading at 0.0185 µg/ml biotin-PDL1-FC amounted to 0.107. In assay [1], the ELISA reading at 0.0556 µg/ml biotin-PDL1-FC amounted to 0.0882, the ELISA reading at 0.1667 µg/ml biotin-PDL1-FC worked out at 0.129, the ELISA reading at 0.5000 µg/ml biotin-PDL1-FC stood at 0.201 and the ELISA reading at 2.0000 µg/ml biotin-PDL1-FC worked out at 0.413. Further, in assay [2], the ELISA reading at 0.0457 nM antibody turned out to be 1.29, the ELISA reading at 0.1372 nM antibody came out at 1.06, the ELISA reading at 0.4115 nM antibody turned out to be 0.901 and the ELISA reading at 1.2346 nM antibody was found to be 0.879. In assay [2], the ELISA reading at 3.7037 nM antibody amounted to 0.895, the ELISA reading at 11.1111 nM antibody was 0.753, the ELISA reading at 33.3333 nM antibody came to 0.737 and the ELISA reading at 100.0000 nM antibody was 0.661.

B3: QP325 (Fc fusion, not shown: a dimerising Fc or GST)
chain: EVQLLESGGGLVQPGGSLRLSCAASGFTYGTYAMSWFRQAPGKGLEGVACIDIYGRTSYTDPVKGRFTISQDNSKNTLYLQMNSLRAEDTAVYYCAARDFGYCTASWVHEGFSRYWGQGTLVTVSS
Regarding B3, in assay [1], the ELISA reading at 0.0007 µg/ml biotin-PDL1-FC is 0.182, the ELISA reading at 0.0021 µg/ml biotin-PDL1-FC worked out at 0.598, the ELISA reading at 0.0062 µg/ml biotin-PDL1-FC came out at 1.32 and the ELISA reading at 0.0185 µg/ml biotin-PDL1-FC was 2.12. In assay [1], the ELISA reading at 0.0556 µg/ml biotin-PDL1-FC was determined as 2.78, the ELISA reading at 0.1667 µg/ml biotin-PDL1-FC was 3.11, the ELISA reading at 0.5000 µg/ml biotin-PDL1-FC stood at 3.21 and the ELISA reading at 2.0000 µg/ml biotin-PDL1-FC is 3.42. Also, in assay [2], the ELISA reading at 0.0457 nM antibody is 1.08, the ELISA reading at 0.1372 nM antibody was determined as 1.02, the ELISA reading at 0.4115 nM antibody is 0.975 and the ELISA reading at 1.2346 nM antibody was found to be 0.995. For the same molecule, in assay [2], the ELISA reading at 3.7037 nM antibody stood at 1.03, the ELISA reading at 11.1111 nM antibody worked out at 0.513, the ELISA reading at 33.3333 nM antibody was 0.238 and the ELISA reading at 100.0000 nM antibody came out at 0.156.

B4: QP190191 (antibody, human IgG1, V domains shown)
VH: EVKLVESGGGLVKPGGSLKLSCAASGFTFSNYAMSWVRQTPEKRLEWVASIISGGRTYYLDSEKGRFTISRDNARNNLYLQMSSLRSEDTAMYYCTRIYYGNSFDYWGQGTTLTVSS
VL: DIVMTQSPSSQTVTAGEKVTMSCKSSQSLLNSGNQKNYLTWYQQKPGQPPKLLIYWASTRESGVPDRFTGSGSGTDFTLTISNMQAEDLAVYYCQNDYSYPFTFGSGTKLEIK
The molecule B4 displayed an MFI in assay [3] of 1060.

B5: QP199200 (antibody, human IgG1, V domains shown)
VH: DVQLVESGGGLVQPGGSRKLSCAASGFTFSSFGMHWVRQAPEKGLEWVAYISSGSNSIYYVDTVKGRFTISRDNPKNTLFLQMTSLKSEDTAMYYCARNAYYGNSFDYWGQGTTLTVSS
VL: DIVMTQSPSSLTVTAGEKVTMSCKSSQSLLNSGNQKNYLTWYQQKPGQPPKLLIYWASTRESGVPDRFTGSGSGTVFTLTISSVQAEDLAVYFCQNNYYYPLTFGAGTKLELK
For B5, the MFI in assay [3] worked out at 918.

B6: QP192193 (antibody, human IgG1, V domains shown)
VH: QVQLQQSGAELVRPGSSVKISCKASGYAFSSYWMNWVKQRPGQGLEWIGQIYPGNGDTTYNGKFKGQATLTADKSSSTVYMQLSSLTSEDSAVYFCARFVKGNAMDYWGQGTSVTVSS
VL: DIVMTQSPSSLTVTAGEKVTMSCKSSQSLLNSGNQKNYLTWYQQNPGQPPKMLIYWASTRESGVPDRFTGSGSGIDFSLTISSVQAEDLALYYCQNAYSYPFTFGSGTKLEIK
For B6, in assay [3], the MFI came to 1030.

B7: QP207208 (antibody, human IgG1, V domains shown)
VH: EVQLQQSGPELVKPGASVKMSCKASGYTFTSYIMHWVKQKPGQGLEWIGYINPYNDGTKYNEKFKGKATLTSDKSSSTVYMELSSLTSEDSAVYCCARLGFTTRNAMDYWGQGTSVTVSS
VL: DIVMTQSPSSLSVSAGEKVTMNCKSSQSLLNSGNQKNYLAWYQQKPGQPPKLLIYGASTRESGVPDRFTGSGSGTDFTLTISSVQAEDLAVYYCQNDHSYPFTFGSGTKLEIK
In the case of B7, the MFI in assay [3] is 1320.

B8: QP201202 (antibody, human IgG1, V domains shown)
VH: EVQLQQSGPELVKPGASVKMSCKASGYTFTNYFVHWVKQKPGQGLEWIGYINPYNDDTKYNEKFKGKATLTSDKSSSTAYMDLSSLTSEDSAVYYCLSLRFFAYWGQGTLVTVSA
VL: DIVMTQSPSSLTVTAGEKVTMSCKSSQSLLNSGNQKNYLTWYQQKPGQAPKLLIYWASTRESGVPDRFIGSGSGTDFTLTISHVQAEDLAVYFCQNDYSYPLTFGAGTNLELK
Take B8: in assay [3], the MFI stood at 1150.

B9: QP1166 (Fc fusion, not shown: a dimerising Fc or GST)
chain: QVQLVESGGDSVQPGGSLRLSCAASGFTYGTYAMSWFRQAPGKEREGVACIDIYGRTSYTDPVKGRFTISQDNAKNTLYLQMNSLKPEDTAMYYCAARDFGYCTASWVHEGFSRYWGQGTQVTVSS
In the case of B9, in assay [1], the ELISA reading at 0.0007 µg/ml biotin-PDL1-FC was determined as 0.217, the ELISA reading at 0.0021 µg/ml biotin-PDL1-FC was found to be 0.56, the ELISA reading at 0.0062 µg/ml biotin-PDL1-FC amounted to 1.55 and the ELISA reading at 0.0185 µg/ml biotin-PDL1-FC was determined as 2.57. Besides, in assay [1], the ELISA reading at 0.0556 µg/ml biotin-PDL1-FC is 3.23, the ELISA reading at 0.1667 µg/ml biotin-PDL1-FC was found to be 3.13, the ELISA reading at 0.5000 µg/ml biotin-PDL1-FC came to 3.28 and the ELISA reading at 2.0000 µg/ml biotin-PDL1-FC was determined as 3.41. In assay [2], the ELISA reading at 0.0457 nM antibody came to 1.16, the ELISA reading at 0.1372 nM antibody worked out at 1.24, the ELISA reading at 0.4115 nM antibody was determined as 1.06 and the ELISA reading at 1.2346 nM antibody was 1.13. Moreover, in assay [2], the ELISA reading at 3.7037 nM antibody came to 1.06, the ELISA reading at 11.1111 nM antibody was 0.508, the ELISA reading at 33.3333 nM antibody was found to be 0.239 and the ELISA reading at 100.0000 nM antibody amounted to 0.167.
